Target: T1, PBP1B (wild type, PBP1B^46-844) (E. coli, UniProt P02919 46-844)
T1 construct: PBP1B, E. coli, residues 46-844, encoded on pDML924; Immobilised on the SPR chip as in Egan et al. 2014 / Gray et al. 2015; also called WT PBP1B; WT; source: E. coli BL21(DE3), purified (membrane extract, HisTrap, thrombin, HiTrap SP ion exchange)
T1 sequence (looked up): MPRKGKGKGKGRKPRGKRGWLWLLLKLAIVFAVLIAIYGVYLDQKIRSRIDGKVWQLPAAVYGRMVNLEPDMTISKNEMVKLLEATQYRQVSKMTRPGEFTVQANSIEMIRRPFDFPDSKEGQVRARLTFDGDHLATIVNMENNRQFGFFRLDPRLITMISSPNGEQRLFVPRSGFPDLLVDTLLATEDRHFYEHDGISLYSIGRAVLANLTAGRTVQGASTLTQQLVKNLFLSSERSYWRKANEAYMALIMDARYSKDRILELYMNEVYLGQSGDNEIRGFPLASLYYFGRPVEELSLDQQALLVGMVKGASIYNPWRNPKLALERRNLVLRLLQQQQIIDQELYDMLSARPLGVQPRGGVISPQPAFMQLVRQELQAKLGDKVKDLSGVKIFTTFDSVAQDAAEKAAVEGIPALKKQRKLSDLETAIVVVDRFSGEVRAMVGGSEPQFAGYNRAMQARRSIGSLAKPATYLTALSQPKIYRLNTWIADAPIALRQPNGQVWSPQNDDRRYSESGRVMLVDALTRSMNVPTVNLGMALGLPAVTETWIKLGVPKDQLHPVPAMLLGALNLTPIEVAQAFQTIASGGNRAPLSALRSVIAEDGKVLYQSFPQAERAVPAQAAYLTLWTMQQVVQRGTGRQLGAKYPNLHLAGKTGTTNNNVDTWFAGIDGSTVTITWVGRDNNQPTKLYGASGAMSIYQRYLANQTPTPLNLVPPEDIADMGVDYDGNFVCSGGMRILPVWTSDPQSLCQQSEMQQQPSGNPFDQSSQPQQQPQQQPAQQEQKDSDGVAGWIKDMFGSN
Experiment: SPR; PBP1B versions immobilised to the chip surface; LpoB injected from 19.5 nM to 10 μM; apparent KD by non-linear regression, at least three independent experiments
Conditions: both partners purified

- Kd: 491 nM
B1: LpoB (natural protein, E. coli)
chain: VGQREPAPVEEVKPAPEQPAEPQQPVPTVPSVPTIPQQPGPIEHEDQTAPPAPHIRHYDWNGAMQPMVSKMLGADGVTAGSVLLVDSVNNRTNGSLNAAEATETLRNALANNGKFTLVSAQQLSMAKQQLGLSPQDSLGTRSKAIGIARNVGAHYVLYSSASGNVNAPTLQMQLMLVQTGEIIWSGKGAVSQQ
notes: LpoB, E. coli; also called lipoprotein LpoB; source: E. coli BL21(DE3), purified (HisTrap, Superdex 200), as in Egan et al. 2014
